In this series the target is T1, RHAU23-Bst (DHX36 RHAU23 peptide fused to N-terminus of Bst-LF) (Homo sapiens / Geobacillus …).
T1 chain: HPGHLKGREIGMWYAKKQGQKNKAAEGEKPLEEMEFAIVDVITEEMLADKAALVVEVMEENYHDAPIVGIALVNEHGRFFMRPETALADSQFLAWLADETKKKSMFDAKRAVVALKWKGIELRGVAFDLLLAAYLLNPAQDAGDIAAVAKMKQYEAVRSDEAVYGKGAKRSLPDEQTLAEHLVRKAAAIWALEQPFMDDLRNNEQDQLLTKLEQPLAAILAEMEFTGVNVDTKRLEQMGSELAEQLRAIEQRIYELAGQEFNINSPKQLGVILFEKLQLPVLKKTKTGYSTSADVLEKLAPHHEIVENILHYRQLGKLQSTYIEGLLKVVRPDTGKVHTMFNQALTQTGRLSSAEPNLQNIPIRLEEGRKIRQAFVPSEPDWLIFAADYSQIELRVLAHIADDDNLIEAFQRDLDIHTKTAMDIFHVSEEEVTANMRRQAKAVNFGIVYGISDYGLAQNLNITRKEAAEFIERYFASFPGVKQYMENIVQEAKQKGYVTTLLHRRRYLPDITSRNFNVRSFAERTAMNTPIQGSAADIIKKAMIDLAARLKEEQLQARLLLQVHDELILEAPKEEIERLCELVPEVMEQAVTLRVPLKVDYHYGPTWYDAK
The series can be described thus: EMSA; Kd stated only as nM level; K+ buffer, 4 C. Particulars: tags: His-tag, pCold-I, E. coli BL21; label: 5'-FAM (EMSA); bulged G4 with flanking dsDNA. As to the method: Oligonucleotides were purchased from Sangon Biotech Co., Ltd (China). Double-stranded DNAs (dsDNA) were paired from the complementary single-stranded DNA (ssDNA) by denaturing at 95° C. for 5 min and subsequently cooling to 25° C. in a buffer containing 10 mM Tris-HCl (pH 7.4), 75 mM KCl and 0.5 mM EDTA. 20 nM 5′-FAM-labeled aptamer DNA (Table 1) was dissolved in a first buffer, denatured at 95° C. for 5 min and subsequently cooled to 25° C. at a rate of 0.1° C./s; the first buffer contained 10 mM Tris-HCl (pH 7.4), 75 mM KCl, 0.5 mM EDTA, and 0.2 mg/ml BSA. Then each aptamer DNA and the specified concentration of DNA polymerase fused to G-quadruplex binding peptide were added into a second buffer, to bind at 4° C. for 1 hour, to form a DNA-protein complex; the second buffer contained 20 mM Tris-HCl (pH 8.8), 10 mM (NH₄)₂SO₄, 50 mM KCl, 2-8 mM MgSO₄, and 0.1% Tween-20.
The binding of aptamer to DNA polymerase was detected by electrophoretic mobility shift assay. Specifically, DNA-protein complex was electrophoresed on 8% or 12% non-denatured polyacrylamide gel containing 75 mM KCl at 4° C. for 2 h in 1×TBE buffer containing 75 mM KCl. The DNA-protein complex was photographed by the ChemiDoc MP imaging system (Bio-Rad) and digitized by the Image Quant 5.2 software.
On the technique in general: A gel shift assay detects complexes by their altered migration in electrophoresis.

B1: PDGFRB-Fd-G4 (structured_DNA)
DNA 1: CCTGAAGCAGACAGCTAGTGAATTCGGGAGGGCGGCGGGGCAGGGTACTTGCGTATAACTGTTCCATAGT
DNA 2: ACTATGGAACAGTTATACGCAAGTATTTTTTTTTTTTTTTTTTTTTGAATTCACTAGCTGTCTGCTTCAGG
With B1, the binding result is listed as “binds”.

B2: T4B1-Fd-G4 (structured_DNA)
DNA 1: CCTGAAGCAGACAGCTAGTGAATTCGTTTTGGTGGGTGGGTGGGTACTTGCGTATAACTGTTCCATAGT
DNA 2: B1 DNA 2
For the molecule B2, the binding result is listed as “binds”.
